Changes are numbered by the printed parent chain.
T1: human GM-CSFRα (mature receptor alpha chain, as on human cells) (human, UniProt P15509 23-400)
T1 sequence: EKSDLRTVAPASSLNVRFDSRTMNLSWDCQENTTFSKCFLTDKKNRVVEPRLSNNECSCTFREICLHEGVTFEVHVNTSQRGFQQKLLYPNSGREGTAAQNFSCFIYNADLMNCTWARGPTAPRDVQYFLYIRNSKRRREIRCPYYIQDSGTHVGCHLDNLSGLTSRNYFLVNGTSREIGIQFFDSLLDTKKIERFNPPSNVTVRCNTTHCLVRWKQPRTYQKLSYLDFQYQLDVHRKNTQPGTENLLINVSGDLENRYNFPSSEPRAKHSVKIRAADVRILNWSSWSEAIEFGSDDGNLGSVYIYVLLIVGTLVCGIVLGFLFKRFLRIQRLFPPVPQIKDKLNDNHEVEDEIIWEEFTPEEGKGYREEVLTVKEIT

T2: cynomolgus GM-CSFRα on cynomolgus granulocytes (cynomolgus, UniProt A0A2K5UC70 23-393)
T2 sequence: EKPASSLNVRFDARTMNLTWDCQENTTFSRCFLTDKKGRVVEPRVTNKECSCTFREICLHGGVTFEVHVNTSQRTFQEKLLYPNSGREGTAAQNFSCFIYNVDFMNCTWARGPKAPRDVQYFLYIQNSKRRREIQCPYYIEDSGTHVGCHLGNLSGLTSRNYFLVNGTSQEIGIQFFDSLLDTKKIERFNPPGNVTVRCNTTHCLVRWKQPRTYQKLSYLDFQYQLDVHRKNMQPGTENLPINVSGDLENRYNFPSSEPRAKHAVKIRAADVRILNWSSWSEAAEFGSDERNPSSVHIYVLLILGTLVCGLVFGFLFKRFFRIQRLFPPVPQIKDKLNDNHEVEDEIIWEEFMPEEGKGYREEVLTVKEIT

B1: Antibody 6 (germlined or non-germlined not stated at these places) (antibody, V domains shown)
VH: QVQLVQSGAEVKKPGASVKVSCKVSGYTLTELSIHWVRQAPGKGLEWMGGFDPEENEIVYAQRFQGRVTMTEDTSTDTAYMELSSLRSEDTAVYYCAIVGSFSPLTLGLWGQGTMVTVSS
VL: QSVLTQPPSVSGAPGQRVTISCTGSGSNIGAPYDVSWYQQLPGTAPKLLIYHNNKRPSGVPDRFSGSKSGTSASLAITGLQAEDEADYYCATVEAGLSGSVFGGGTKLTVL
B2: Antibody 13 IgG4 (antibody, V domains shown)
VH: QVQLVQSGAEVKKPGASVKVSCKISGHSLSELSIHWVRQTPTKGFEWMGGFDPEENEIVYAQRFQGRVTMTEDTSIDTAYLTLSSLRSDDTAVYYCSIVGSFSGWAFDYWGKGTMVTVSS
VL: QAVLTQPSSVSGAPGQRVTISCTGSGSNIGAPYDVSWYQQLPGTAPKLLIYHNNKRPSGVPDRFSASKSGTSASLAITGLQADDEADYYCQSYDSRTGIIVFGGGTKVTVL
B3: Antibody 6 IgG4, non-germlined (antibody, V domains shown)
VH: B2 VH with G104P, W105L, A106T, F107L, D108G, Y109L
VL: B1 VL with S2A, P8S, G66A, E83D
B4: Antibody 18 IgG4 (antibody, V domains shown)
VH: B2 VH with S33F, I98T, W105P, F107L, D108H, Y109L
VL: B2 VL with R96Q, T97W, G98N, I99Q, I100P, V101L
B5: 28G5 (Antibody 3) IgG4, parent antibody (antibody, V domains shown)
VH: B2 VH
VL: B2 VL with R96S, T97L, G98S, I99G, I100S
B6: Antibody 2 IgG4 (antibody, V domains shown)
VH: B2 VH with W105P, F107L, D108R, Y109P
VL: B2 VL with R96S, T97L, G98S, I99G, I100S

Tests used:
Assay in all cases: cell-based or functional assay
[1] = biological target: T1, human GM-CSFRα (mature receptor alpha …)
[2] = biological target: T1, human GM-CSFRα (mature receptor alpha …); remark: listed apart in the source
[3] = biological target: T2, cynomolgus GM-CSFRα on cynomolgus …

| Binder | IC50, GM-CSF induced proliferation of TF-1 cells [2] [nM] | IC50, cynomolgus granulocyte shape change assay [3] [nM] | also measured |
| --- | --- | --- | --- |
| B1 | – | – | IC50, colony formation assay with 10 ng/ml human GM-CSF [1]: ~0.08 µg/mL |
| B2 | 1.11 | – | – |
| B3 | – | 0.00173 | – |
| B4 | 0.0133 | – | – |
| B5 | – | ~5 | – |
| B6 | – | 0.0032 | – |

Reference: US20090130093A1 (AstraZeneca / MedImmune, published 2009)
